Common to all, as to conditions: both partners purified
The target of test [1] is T1, DAF-21 (C. elegans, UniProt Q18688 1-702).
T1 construct: DAF-21, the Hsp90 homolog of Caenorhabditis elegans; also called Hsp90; wt-DAF-21; source: E. coli BL21-CodonPlus (DE3)-RIL, purified (HisTrap FF, ResourceQ, Superdex SEC); not shown: His tag (from the vector pET28b)
As to the kind of experiment: AUC; sedimentation velocity with fluorescence detection; fluorescein-labelled cofactor 300 nM, DAF-21 or variant 6 µM; with 4 mM AMP-PNP; 20 to 22°C, 42.000 r.p.m.; dc/dt analysis.

Test [2] concerns the target T2, E292K-DAF-21 (C. elegans, UniProt Q18688 1-702, E292K).
T2 construct: DAF-21, the Hsp90 homolog of Caenorhabditis elegans, with the point mutation of the allele daf-21(p673); The mutation occurs in the nematode strain JT6130 (daf-21(p673)); The recombinant variant was made from the daf-21 cDNA; also called E292K variant; DAF-21 of daf-21(p673), strain JT6130; source: E. coli BL21-CodonPlus (DE3)-RIL, purified (HisTrap FF, ResourceQ, Superdex SEC); not shown: His …
Described as above.

Test [3] has as its target T1, DAF-21. As to the kind of experiment: AUC; sedimentation velocity with fluorescence detection; fluorescein-labelled cofactor 300 nM, DAF-21 or variant 6 µM; no nucleotide; 20 to 22°C, 42.000 r.p.m.; dc/dt analysis.
The target in test [4] is T2, E292K-DAF-21. The test is described as above.

B1: Cep23 (ZC395.10), fluorescein-labelled (natural protein, C. elegans, UniProt Q23280 1-175, looked up)
chain: MAKQPTVLWAQRESLVYLTIEVDEAKIEELKGEGNKLHFQGSSKTDKYEATLEFFDEIDPASVKHTGSSTRVVEITVQKKTPAWWPRLLQNKGKVHWLKVDFGKWKDEDEDDEAEDAGAGIGGGMANGFDLNQYMSQMGGAGGADFGGLEDDEEDDDMPDLEDNEEEEGKNGTRA
modifications: 5-carboxyfluorescein (N-succinimidyl ester) at lysine residues
notes: Cep23, the p23 cofactor of Hsp90 in Caenorhabditis elegans (ZC395.10); also called Labelled Cep23; source: E. coli BL21-CodonPlus (DE3)-RIL, purified (HisTrap FF, ResourceQ, Superdex SEC); not shown: His tag (from the vector pET28b)
For the molecule B1, the binding result in test [1] and in test [2] was “binds” each time.

B2: STI-1, fluorescein-labelled (natural protein, C. elegans, UniProt O16259 1-320, looked up)
chain: MTDAAIAEKDLGNAAYKQKDFEKAHVHYDKAIELDPSNITFYNNKAAVYFEEKKFAECVQFCEKAVEVGRETRADYKLIAKAMSRAGNAFQKQNDLSLAVQWFHRSLSEFRDPELVKKVKELEKQLKAAERLAYINPELAQEEKNKGNEYFKKGDYPTAMRHYNEAVKRDPENAILYSNRAACLTKLMEFQRALDDCDTCIRLDSKFIKGYIRKAACLVAMREWSKAQRAYEDALQVDPSNEEAREGVRNCLRSNDEDPEKAKERSLADPEVQEILRDPGMRMILEQMSNDPGAVREHLKNPEIFQKLMKLRDAGVIQMR
modifications: 5-carboxyfluorescein (N-succinimidyl ester) at lysine residues
notes: STI-1, TPR-containing cofactor of Hsp90 in Caenorhabditis elegans; also called labelled STI-1; source: E. coli BL21-CodonPlus (DE3)-RIL, purified (HisTrap FF, ResourceQ, Superdex SEC); not shown: His tag (from the vector pET28b)
Regarding B2, the binding result in test [3] and in test [4] was “binds” throughout.

The record behind these values is publication PMC3182237, “Downregulation of the Hsp90 System Causes Defects in Muscle Cells of Caenorhabditis Elegans” (PLoS ONE, 2011).
